The source of these data is article PMC7497161.

*1 amine or outer side, *2 acyl side, *3 side chain or, on linkers, in order; H or OH if unused. Where no end group is shown, it is not given here. [ ]: non-standard residue; d: D form. Dap(Dnp) = diaminopropionic acid carrying a 2,4-dinitrophenyl quencher, O=C([C@H](CNc1ccc([N+](=O)[O-])cc1[N+](=O)[O-])N[*:1])[*:2]; 2Abz = Nc1ccccc1C(=O)O

This test concerns the target circularly permuted Caspase-2 double mutant Asp323Thr/His226Ala (human) (UniProt P42575).
Sequence of UniProt P42575 (P42575 whole entry H226A/D323T): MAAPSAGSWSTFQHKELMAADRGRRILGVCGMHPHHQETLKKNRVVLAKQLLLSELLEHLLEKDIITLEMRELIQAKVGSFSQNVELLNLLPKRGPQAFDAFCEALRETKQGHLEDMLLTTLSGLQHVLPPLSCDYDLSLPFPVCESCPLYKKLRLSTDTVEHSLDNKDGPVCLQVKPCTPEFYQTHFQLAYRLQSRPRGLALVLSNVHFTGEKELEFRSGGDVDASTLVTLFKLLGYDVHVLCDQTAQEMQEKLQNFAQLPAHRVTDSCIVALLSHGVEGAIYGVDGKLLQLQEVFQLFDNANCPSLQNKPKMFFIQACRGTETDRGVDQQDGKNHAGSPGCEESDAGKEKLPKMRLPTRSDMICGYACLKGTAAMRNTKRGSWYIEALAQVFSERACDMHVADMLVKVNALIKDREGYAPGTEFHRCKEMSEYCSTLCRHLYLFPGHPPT

In turn, [2Abz]VDVADGA-{Dap(Dnp)} [Abz-VDVAD-GA-Dap(Dnp)] registered a K M (Michaelis-Menten kinetics, FRET peptide-based cleavage assay, 1 μM enzyme) of 55 µM.
Consider [2Abz]VDVADAA-{Dap(Dnp)} [Abz-VDVAD-AA-Dap(Dnp)], for which the K M (Michaelis-Menten kinetics, FRET peptide-based cleavage assay, 1 μM enzyme) came to 57 µM.
Under [2Abz]VDVADVA-{Dap(Dnp)} [Abz-VDVAD-VA-Dap(Dnp)] stands 77 µM; under [2Abz]VDVADLA-{Dap(Dnp)} [Abz-VDVAD-LA-Dap(Dnp)], 193 µM; under [2Abz]VDVADTA-{Dap(Dnp)} [Abz-VDVAD-TA-Dap(Dnp)], 82 µM.
Under [2Abz]VDVADPA-{Dap(Dnp)} [Abz-VDVAD-PA-Dap(Dnp)] stands 43 µM.
